The source of these data is paper PMC11022072.

The assay has as its target bovine lactoferrin (Lf) (bovine). The experiment in a line: […]; 20 mM HEPES pH 7.4, 150 mM NaCl.

As usually defined, the stoichiometry N is the number of molecules, sites or subunits per partner or assembly. “C-terminal α-helical domain (CaHD) of Moraxella bovis LbpB (domain or fragment)” yielded a stoichiometry N of 1.
